# Results from patent US11999794B2, “Human mesothelin chimeric antigen receptors and uses thereof” (Novartis AG, priority 2013, dated 2024).
# Changes are numbered by the printed parent chain. “Also recorded” adds a separate entry of the source.
# B1: M5: human anti-mesothelin scFv SEQ ID NO: 43; full CAR SEQ ID NO: 67 (protein)
# scFv: QVQLVQSGAEVEKPGASVKVSCKASGYTFTDYYMHWVRQAPGQGLEWMGWINPNSGGTNYAQKFQGRVTMTRDTSISTAYMELSRLRSDDTAVYYCASGWDFDYWGQGTLVTVSSGGGGSGGGGSGGGGSGGGGSDIVMTQSPSSLSASVGDRVTITCRASQSIRYYLSWYQQKPGKAPKLLIYTASILQNGVPSRFSGSGSGTDFTLTISSLQPEDFATYYCLQTYTTPDFGPGTKVEIK
# B2: M11: human anti-mesothelin scFv SEQ ID NO: 49; full CAR SEQ ID NO: 73 (protein)
# scFv: B1 scFv with V5Q, E12K, D31G, K63N, S84R, V138R
# Assays:
# [1] = tested on: PD-1; experiment: Immunophenotyping of PBMC (FACS); assay type: in vivo, human; details: for decrease in PD-1 positive CD4 T cells compared to placebo / decrease in PD-1 positive CD8 T cells compared to placebo: adjusted for baseline
# [2] = tested on: Ovcar3; experiment: Luciferase-based killing assay; assay type: cell-based, human; details: for killing of target tumor cells: E:T 10:1 to 1:1, 20 hours, FIG. 16A; for specific killing within the panel of human meso CARs: FIGS. 17A and 17B
# Experimental: The ability for the CART-MSLN to target and kill tumor cells was also assessed in vitro. A luciferase-based assay was used, with tumor cell lines expressing luciferase reporters. Target cells (tumor cells) were plated at 20,000 targets/well. CART-MSLN were added at varying effector:target ratios, from 10:1, 5:1, 2.5:1, and 1:1. The cells were cultured for 20 hours, and the luminescence of each well was detected to determine the percentage of target cells killed. Luciferase-expressing Ovcar3 (ovarian cancer) and U87 mg (glioblastoma) cell lines were used as target cells.
# [3] = molecular target: T1, biotinylated mesothelin ECD (Homo sapiens, UniProt Q13421); experiment: SPR relative epitope binning in comparison to SS1; assay type: binding; details: 50 nM SS1 captured first, then scFv at 100 nM
# T1 construct: made in house; host or cells: HEK293F (transient)
# Experimental: In embodiments, the competition assay is an SPR-based assay. Briefly, the antigen, e.g., human mesothelin, is immobilized on a surface. Through a microflow system, a reference antibody is injected over the antigen layer. Upon binding of the reference antibody to the antigen, an increase in signal, typically expressed in response units (RU) is detected, e.g., reference signal. After a desired time, a test antibody is injected over the antigen layer. If the test antibody binds to a different region or epitope of the antigen, then an additional increase in signal is detected, e.g., a 5% or more, 10% or more, 15% or more, 20% or more, 25% or more, 30% or more, 35%, or more, 40% or more, 45% or more, 50% or more, 55% of more, 60% or more, 65% or more, 70% or more, 75% or more, 80% or more, 85% or more, 90% or more, or 95% or more increase in signal, e.g., RU, as compared to the highest signal detected upon binding of the reference antibody, e.g., the reference signal. If the test antibody binds to the same region or epitope of the antigen, then little or no increase in signal, e.g., RU, will be detected, e.g., less than 20%, less than 15%, less than 10%, less than 5%, less than 4%, less than 3%, less than 2%, or less than 1% increase in signal, e.g., RU, as compared to the highest signal detected upon binding of the reference antibody, e.g., the reference signal. When using this SPR-based competition assay, an antibody is said to compete with the reference antibody when less than 20%, less than 15%, less than 10%, less than 5%, less than 4%, less than 3%, less than 2%, or less than 1% increase in signal, e.g., RU, is detected when compared to the reference signal detected upon binding of the reference antibody to the antigen. An antibody is said to not compete, or compete poorly, with a reference antibody when a 5% or more, 10% or more, 15% or more, 20% or more, 25% or more, 30% or more, 35%, or more, 40% or more, 45% or more, 50% or more, 55% of more, 60% or more, 65% or more, 70% or more, 75% or more, 80% or more, 85% or more, 90% or more, or 95% or more increase in signal, e.g., RU, is detected when compared to the reference signal detected upon binding of the reference antibody to the antigen.
# To determine the relative binding epitope of each of the scFvs in comparison to SS1, 50 nM SS1 was captured by biotinylated mesothelin ECD immobilized on a streptavidin sensor chip at a contact time of 180 seconds resulting in a relative density of 70 RU. Purified scFv at 100 nM (M5, M11, M12, M14, M16, M17, M21, or M23) was then immediately injected over the chip to minimize dissociation of the SS1/mesothelin complex. Binding of the secondary scFv was monitored for 270 seconds.
# [4] = tested on: Ovcar8, SW1990 and Panc0203; experiment: IFNγ production of CART-MSLN (CBA-Flex), endogenous MSLN; assay type: cell-based, human; details: for IFNγ levels compared with the other CARTs: cancer cells endogenously expressing MSLN
# Experimental: Plots from 20 hour flow-based killing assays using titrating Effector to Target (E:T) ratios with effector CART-MSLN cells targeting CSFE labeled K562 (FIG. 3A. non-expressing MSLN controls) and K562-Meso (FIG. 3B, K562 cells transduced to express MSLN). […] For measuring cytokine production of human scFv bearing CART-MSLN, cells were thawed and allowed to recover overnight. In addition to the humanized CART-MSLN, the SS1 CART-MSLN (murine scFv) was used for comparative purposes. CD19-BBz CART was used as a non-targeting control for background CART cell effect. SS1 CART-MSLN was used in all assays to compare assay variation. The T cells were directed towards K562, a chronic myelogenous leukemia cell line (both MSLN+ and MSLN), the MLSN-expressing ovarian cancer cell line Ovcar8, and the pancreatic cancer lines SW1990 and Panc0203. When analyzing MSLN expression by flow cytometry, we detected 10-fold lower expression of MSLN on Ovcar8 compared to MSLN+K562 cells; SW1990 expressed 10-fold less than Ovcar8. […] In addition, PMA/Ionomycin was used to evaluate the potential of T cells to respond to the endogenous immunological signals. The assay tests only an effector:target ratio of 1:1. The assay is run for 24 hours after mixing of the cells, when the media is removed for cytokine analysis using the IFN-γ CBA-Flex kit for human cytokine detection.
# Background levels of cytokine produced from CART-MSLN cells after exposure to the control K562 cells not expressing MSLN were analyzed. […] Differences were dealt with by normalizing the specific IFNγ release over the maximum release (PMA/Ionomycin).
# T1 sequence (Q13421 with tags, fused parts or gaps): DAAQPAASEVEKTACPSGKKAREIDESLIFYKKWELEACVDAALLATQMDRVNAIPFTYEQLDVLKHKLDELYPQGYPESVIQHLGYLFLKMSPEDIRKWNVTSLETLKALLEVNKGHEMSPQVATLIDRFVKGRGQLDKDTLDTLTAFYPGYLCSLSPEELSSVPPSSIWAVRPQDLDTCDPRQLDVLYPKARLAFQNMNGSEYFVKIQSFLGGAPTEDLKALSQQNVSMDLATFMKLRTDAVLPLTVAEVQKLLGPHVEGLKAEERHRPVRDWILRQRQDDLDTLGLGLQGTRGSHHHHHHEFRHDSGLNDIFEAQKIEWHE
Molecule,percentage of PD-1 positive CD4 and CD8 cells compared to placebo cohorts ([1]; in vivo),"decrease in PD-1 positive CD4 T cells compared to placebo ([1]; week 6, pooled cohort (n=84)) [%]","decrease in PD-1 positive CD8 T cells compared to placebo ([1]; week 6, pooled cohort (n=84)) [%]","decrease in PD-1 positive CD4 T cells compared to placebo ([1]; week 12, pooled cohort) [%]","decrease in PD-1 positive CD8 T cells compared to placebo ([1]; week 12, pooled cohort) [%]","change in PD-1-positive CD8 T cells compared to placebo ([1]; week 12, 0.5 mg/Day, 5 mg/Week and 20 mg/Week cohorts)",killing of target tumor cells [2],specific killing within the panel of human meso CARs [2],relative epitope binning against SS1 on human mesothelin [3],"IFNγ response to cancer cells endogenously expressing MSLN ([4]; E:T 1:1, 24 hours)",IFNγ levels compared with the other CARTs [4]
"CO[C@H]1C[C@@H]2CC[C@@H](C)[C@@](O)(O2)C(=O)C(=O)N2CCCC[C@H]2C(=O)O[C@H]([C@H](C)C[C@@H]2CC[C@@H](OCCO)[C@H](OC)C2)CC(=O)[C@H](C)/C=C(\C)[C@@H](O)[C@@H](OC)C(=O)[C@H](C)C[C@H](C)/C=C/C=C/C=C/1C [RAD001, (1R,9S,12S,15R,16E,18R,19R,21R,23 S,24E,26E,28E,30S,32S,35R)-1,18-dihydroxy-12-{(1R)-2-[(1 S,3R,4R)-4-(2-hydroxyethoxy)-3-methoxycyclohexyl]-1-methylethyl}-19,30-dimethoxy-15,17,21,23,29,35-hexamethyl-11,36-dioxa-4-aza-tricyclo[30.3.1.04,9]hexatriaconta-16,24,26,28-tetraene-2,3,10,14,20-pentaone]",lower in the RAD001 as compared to placebo cohorts,30.2,37.4,32.7,41.4,−43.3-−38.5%,–,–,–,–,–
B1,–,–,–,–,–,–,performed similarly well in killing target tumor cells,highest specific killing of Ovcar3 cells,bind to a different epitope than SS1; also recorded: bind to a unique epitope,responded,superior IFNγ levels
B2,–,–,–,–,–,–,performed similarly well in killing target tumor cells,highest specific killing of Ovcar3 cells,bind to a different epitope than SS1; also recorded: bind to a unique epitope,–,superior IFNγ levels
